According to patent publication US20100093028A1 (DANISCO US, published 2010):
Each block holds one binder with its values, some of them ahead of it.

What was measured:
Tumor necrosis factor α [1] = biological target: T1, Tumor necrosis factor α (UniProt P01375 77-233); experiment: BioVeris ECL competition with a labeled competitor; legend: ++ = IC50 about 10-50 µM
T1 construct: also called TNFα; TNF
Description: (§1) The resulting vectors were used to transform B. subtilis BG6006 host cells. Cultures were grown in 500 ml of MBD medium and the BBI species were purified essentially as described above and by Vogtentanz et al., 2007 (Protein Expr Purif 55:40-52 [2007]). BioVeris binding assays were performed essentially as outlined in Example 5 and by the manufacturer. Binding of the modified variant BBIs to their respective target proteins was measured using a BioVeris® binding assay, which is a competition assay that determines the binding of the modified variant BBIs to its target protein (e.g. VEGF, FGF5, TGFβ and TNFα) in the presence or absence of a labeled competitor. The competitor can be a labeled monoclonal antibody raised against the target protein or a labeled native receptor of the target protein. The electrochemiluminesent binding assays were performed essentially as described in Example 5. The apparent IC50s were determined from binding data by determining the concentration of the BBI species needed to reduce the BioVeris signal by one half. BBI scaffolds without the target binding peptide in the chymotrypsin inhibitory loop were used as negative controls.

Tumor necrosis factor α [2] = biological target: T1, Tumor necrosis factor α; experiment: BioVeris ECL competition with a labeled competitor; legend: + = IC50 about 50-250 µM
Description: as §1

[3] = biological target: T2, vascular endothelial growth factor (UniProt P15692-4 27-191, limits assumed, biotin label (Example 5), site not stated); experiment: BioVeris ECL competition with a labeled competitor; legend: ++ = IC50 about 10-50 µM
T2 construct: also called VEGF; VegF
Description: as §1

[4] = biological target: T2, vascular endothelial growth factor; experiment: BioVeris ECL competition with a labeled competitor; legend: +++ = IC50 about 2-10 µM
Description: as §1

Tumor necrosis factor α [5] = biological target: T1, Tumor necrosis factor α; experiment: BioVeris ECL competition; negative control for TNFα binding
[6] = biological target: T3, Transforming growth factor β1 (UniProt P01137 279-390); experiment: BioVeris ECL competition with a labeled competitor; legend: ++ = IC50 about 10-50 µM
T3 construct: also called TGFβ1; TGFβ
Description: as §1

[7] = biological target: T3, Transforming growth factor β1; experiment: BioVeris ECL competition; negative control for TGFβ binding
[8] = biological target: T4, fibroblast growth factor 5 (UniProt P12034 21-268, limits assumed); experiment: BioVeris ECL competition with a labeled competitor; legend: ++ = IC50 about 10-50 µM
T4 construct: also called FGF-5; FGF5
T4 sequence (looked up): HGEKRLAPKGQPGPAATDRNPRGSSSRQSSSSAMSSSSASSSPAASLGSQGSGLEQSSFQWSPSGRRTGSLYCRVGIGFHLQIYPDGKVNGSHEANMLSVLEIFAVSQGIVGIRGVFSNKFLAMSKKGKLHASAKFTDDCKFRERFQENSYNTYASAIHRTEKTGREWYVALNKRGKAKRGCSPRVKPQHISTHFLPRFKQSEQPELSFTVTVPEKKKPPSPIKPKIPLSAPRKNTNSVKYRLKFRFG
Description: as §1

[9] = biological target: T2, vascular endothelial growth factor; experiment: BioVeris ECL competition; wild-type negative control for VEGF binding
[10] = biological target: T4, fibroblast growth factor 5; experiment: BioVeris ECL competition; wild-type negative control for FGF-5 binding

T3 sequence (P01137 279-390 limits assumed): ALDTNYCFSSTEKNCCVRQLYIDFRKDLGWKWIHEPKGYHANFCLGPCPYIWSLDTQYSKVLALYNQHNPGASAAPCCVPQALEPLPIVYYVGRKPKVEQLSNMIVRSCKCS
T1 sequence (P01375 77-233 limits assumed): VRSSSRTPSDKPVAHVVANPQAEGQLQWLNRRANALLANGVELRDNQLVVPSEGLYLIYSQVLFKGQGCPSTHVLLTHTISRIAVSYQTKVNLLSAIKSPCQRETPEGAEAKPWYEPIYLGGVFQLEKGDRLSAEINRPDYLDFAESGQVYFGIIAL
T2 sequence (P15692 other isoform, or with tags, fused parts or gaps limits assumed): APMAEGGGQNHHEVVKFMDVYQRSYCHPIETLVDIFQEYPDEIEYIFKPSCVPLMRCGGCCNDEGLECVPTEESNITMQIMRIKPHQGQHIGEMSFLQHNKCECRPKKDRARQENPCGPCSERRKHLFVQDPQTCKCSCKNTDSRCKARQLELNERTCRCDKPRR

IC50 [4]: 2 to 10 µM
B5: BBIt-VEGF-V6-A13I-S25R-M27A-L29P-S31A-F50K-V52T (designed binder)
chain: DPDDESSKPCCDQCICTKSNPPQCRCRDARPNACHSACKSCACPVTKRVHCKCTDITDFCYEPCKPSE
notes: also called BBIt-AV-V6

IC50 [3]: 10 to 50 µM
B6: BBIt-VEGF-V3-A13I-S25R-M27A-L29P-S31A-F50K-V52T (designed binder)
chain: DPDDESSKPCCDQCICTKSNPPQCRCRDARPNACHSACKSCACRPTGHSLCKCTDITDFCYEPCKPSE
notes: also called BBIt-AV-V3

IC50 [3]: 10 to 50 µM
B7: BBIt-VEGF-V1-A13I-S25R-M27A-L29P-S31A-F50K-V52T (designed binder)
chain: DPDDESSKPCCDQCICTKSNPPQCRCRDARPNACHSACKSCACSKHSQITCKCTDITDFCYEPCKPSE
notes: also called BBIt-AV-V1
IC50 (Tumor necrosis factor α [5]): > 250 µM

IC50 [4]: 2 to 10 µM
B8: BBIt-VEGF-V2-A13I-S25R-M27A-L29P-S31A-F50K-V52T (designed binder)
chain: DPDDESSKPCCDQCICTKSNPPQCRCRDARPNACHSACKSCACKTNPSGSCKCTDITDFCYEPCKPSE
notes: also called BBIt-AV-V2

IC50 [4]: 2 to 10 µM
B9: BBIt-VEGF-V4-A13I-S25R-M27A-L29P-S31A-F50K-V52T (designed binder)
chain: DPDDESSKPCCDQCICTKSNPPQCRCRDARPNACHSACKSCACKHSAKAECKCTDITDFCYEPCKPSE
notes: also called BBIt-AV-V4

IC50 [6]: 10 to 50 µM
B11: WTQ-Q-BBIt-TGFβ1 (designed binder)
chain: DPDDESSKPCCDQCICTKSNPPQCRCSDMRPNSCHSACKSCACWTQHIHNCTCADITDFCYEPCKPSE
notes: also called BBIt-WTQ-Q-A13I-L29P-F50T-V52A

IC50 [6]: 10 to 50 µM
B12: MM021W-Q-BBIt-TGFβ1 (designed binder)
chain: DPDDESSKPCCDQCICTKSNPPQCRCSDMRPNSCHSACKSCACKHNVDWLCTCADITDFCYEPCKPSE
notes: also called MM0212-Q-BBIt-TGF; BBIt-MM021W-Q-A13I-L29P-F50T-V52A

IC50 [7]: > 250 µM
IC50 [8]: 10 to 50 µM
B13: FGFps2-Q-BBIt-FGF-5 (designed binder)
chain: DPDDESSKPCCDQCICTKSNPPQCRCSDMRPNSCHSACKSCACTWIDSTPCTCADITDFCYEPCKPSE
notes: also called BBIt-FGFps2-Q-A13I-L29P-F50T-V52A

IC50 [8]: 10 to 50 µM
B14: MM007-Q-BBIt-FGF-5 (designed binder)
chain: DPDDESSKPCCDQCICTKSNPPQCRCSDMRPNSCHSACKSCACRTQPYPLCTCADITDFCYEPCKPSE
notes: also called BBIt-MM007-Q-A13I-L29P-F50T-V52A

IC50 [6]: 10 to 50 µM
B19: PEN3-Q-BBIt-TGFβ1 (designed binder)
chain: DPDDESSKPCCDQCICTKSNPPQCRCSDMRPNSCHSACKSCACPENINVLPCTCADITDFCYEPCKPSE
notes: also called BBIt-PEN3-Q-A13I-L29P-F50T-V52A

IC50 [4]: 2 to 10 µM
B20: BBIt-VEGKD-A13I-S25K-L29P-V52K (designed binder)
chain: DPDDESSKPCCDQCICTKSNPPQCRCKDMRPNSCHSACKSCICKYDLYWWCFCKDITDFCYEPCKPSE
notes: also called VegKD-Q

IC50 [9]: > 250 µM
IC50 [10]: > 250 µM
B22: wild-type soybean Bowman-Birk protease inhibitor (other)
chain: DDESSKPCCDQCACTKSNPPQCRCSDMRLNSCHSACKSCICALSYPAQCFCVDITDFCYEPCKPSEDDKEN
notes: Negative control with the native chymotrypsin loop ALSYPAQ; also called sBBI; BBI

IC50 [4]: 2 to 10 µM
B23: BBdb-AV (designed binder)
chain: DPSESSKPCCDQCACTKSIPPQCRCTDVRLNSCHSACSSCACYNLYGWTCVCVDMKDFCYEPCK
notes: also called BBIdb-AV

IC50 [4]: 2 to 10 µM
B24: BBtc-AV (designed binder)
chain: DPSSKWEACCDRCACTKSIPPQCHCADIRLNSCHSACESCACYNLYGWTCRCFDITDFCYKPCSG
notes: also called BBItc-AV

More lines, now with the values behind:

B1: BBIt-TNFα-T1-A13I-S25R-M27A-L29P-S31A-F50K-V52T (designed binder)
chain: DPDDESSKPCCDQCICTKSNPPQCRCRDARPNACHSACKSCACRYWQDIPCKCTDITDFCYEPCKPSE
notes: also called BBIt-TNF-T1
IC50 (Tumor necrosis factor α [1]): 10 to 50 µM

B2: BBIt-TNFα-T3-A13I-S25R-M27A-L29P-S31A-F50K-V52T (designed binder)
chain: DPDDESSKPCCDQCICTKSNPPQCRCRDARPNACHSACKSCACDMIMVSICKCTDITDFCYEPCKPSE
notes: also called BBIt-TNF-T3
IC50 (Tumor necrosis factor α [2]): 50 to 250 µM

B3: BBIt-VEGF-V5-A13I-S25R-M27A-L29P-S31A-F50K-V52T (designed binder)
chain: DPDDESSKPCCDQCICTKSNPPQCRCRDARPNACHSACKSCACKPSSASSCKCTDITDFCYEPCKPSE
notes: also called BBIt-AV-V5
IC50 [3]: 10 to 50 µM

B4: BBIt-TNFα-T2-A13I-S25R-M27A-L29P-S31A-F50K-V52T (designed binder)
chain: DPDDESSKPCCDQCICTKSNPPQCRCRDARPNACHSACKSCACAPEPILACKCTDITDFCYEPCKPSE
notes: also called BBIt-TNF-T2
IC50 (Tumor necrosis factor α [2]): 50 to 250 µM

B10: BBIt-AV-A13I-L29P-A40K-F50T-V52A (designed binder)
chain: DPDDESSKPCCDQCICTKSNPPQCRCSDMRPNSCHSACKSCKCYNLYGWTCTCADITDFCYEPCKPSE
notes: also called TA5; quintuple variant
IC50 [4]: 2 to 10 µM

B15: BBIt-AV-A13I-S25R-M27A-L29P-S31A-A40H-F50K-V52T (designed binder)
chain: DPDDESSKPCCDQCICTKSNPPQCRCRDARPNACHSACKSCHCYNLYGWTCKCTDITDFCYEPCKPSE
notes: the entry carries an N-terminal DP; also called KT8
IC50 [4]: 2 to 10 µM

B16: BBIt-AV-A13I-S25K-M27A-L29R-S31E-A40K-F50Q-V52Q (designed binder)
chain: DPDDESSKPCCDQCICTKSNPPQCRCKDARRNECHSACKSCKCYNLYGWTCQCQDITDFCYEPCKPSE
notes: the entry carries an N-terminal DP; also called QQ8
IC50 [4]: 2 to 10 µM

B17: BBIt-AV-A13I-S25K-M27A-L29R-S31A-A40H-F50R-V52L (designed binder)
chain: DPDDESSKPCCDQCICTKSNPPQCRCKDARRNACHSACKSCHCYNLYGWTCRCLDITDFCYEPCKPSE
notes: the entry carries an N-terminal DP; also called RL8
IC50 [4]: 2 to 10 µM

B18: BBIt-AV-A13I-A40K-F50T-V52A (designed binder)
chain: DPDDESSKPCCDQCICTKSNPPQCRCSDMRLNSCHSACKSCKCYNLYGWTCTCADITDFCYEPCKPSE
notes: the entry as printed carries an N-terminal DP from the linker
IC50 [4]: 2 to 10 µM

B21: BBIt-AV (designed binder)
chain: DDESSKPCCDQCACTKSNPPQCRCSDMRLNSCHSACKSCACYNLYGWTCFCVDITDFCYEPCKPSE
notes: BBI-AV without its 5 C-terminal amino acids; also called truncated BBI-AV; unmodified BBIt-AV
IC50 [4]: 2 to 10 µM
